From US20240124607A1 (Merck Sharp & Dohme, published 2024)

T1: Human CEACAM5 I80V V83A I112V I113T (human, UniProt P06731 35-685, limits assumed)
T1 chain: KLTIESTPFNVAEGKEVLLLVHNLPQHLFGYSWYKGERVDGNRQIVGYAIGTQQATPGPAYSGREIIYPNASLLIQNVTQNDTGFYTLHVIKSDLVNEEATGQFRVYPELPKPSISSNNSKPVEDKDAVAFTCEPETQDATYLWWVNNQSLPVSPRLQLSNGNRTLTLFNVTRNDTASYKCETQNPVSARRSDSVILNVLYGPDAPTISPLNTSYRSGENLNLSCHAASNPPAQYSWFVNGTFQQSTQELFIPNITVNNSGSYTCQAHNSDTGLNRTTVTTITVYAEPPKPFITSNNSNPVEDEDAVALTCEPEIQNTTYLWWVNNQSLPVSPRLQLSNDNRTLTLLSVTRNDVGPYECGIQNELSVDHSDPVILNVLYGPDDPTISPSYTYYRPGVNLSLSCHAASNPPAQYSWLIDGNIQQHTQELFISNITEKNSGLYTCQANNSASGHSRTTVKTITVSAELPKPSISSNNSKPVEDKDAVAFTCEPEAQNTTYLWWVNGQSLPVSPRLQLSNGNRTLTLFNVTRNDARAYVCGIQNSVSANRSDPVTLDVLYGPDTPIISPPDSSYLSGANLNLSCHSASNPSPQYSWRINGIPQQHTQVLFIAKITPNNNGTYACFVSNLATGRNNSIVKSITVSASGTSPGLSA

T2: Human CEACAM5 (E398) (human, UniProt P06731 35-685, limits assumed)
T2 construct: also called hCEACAM5
T2 sequence: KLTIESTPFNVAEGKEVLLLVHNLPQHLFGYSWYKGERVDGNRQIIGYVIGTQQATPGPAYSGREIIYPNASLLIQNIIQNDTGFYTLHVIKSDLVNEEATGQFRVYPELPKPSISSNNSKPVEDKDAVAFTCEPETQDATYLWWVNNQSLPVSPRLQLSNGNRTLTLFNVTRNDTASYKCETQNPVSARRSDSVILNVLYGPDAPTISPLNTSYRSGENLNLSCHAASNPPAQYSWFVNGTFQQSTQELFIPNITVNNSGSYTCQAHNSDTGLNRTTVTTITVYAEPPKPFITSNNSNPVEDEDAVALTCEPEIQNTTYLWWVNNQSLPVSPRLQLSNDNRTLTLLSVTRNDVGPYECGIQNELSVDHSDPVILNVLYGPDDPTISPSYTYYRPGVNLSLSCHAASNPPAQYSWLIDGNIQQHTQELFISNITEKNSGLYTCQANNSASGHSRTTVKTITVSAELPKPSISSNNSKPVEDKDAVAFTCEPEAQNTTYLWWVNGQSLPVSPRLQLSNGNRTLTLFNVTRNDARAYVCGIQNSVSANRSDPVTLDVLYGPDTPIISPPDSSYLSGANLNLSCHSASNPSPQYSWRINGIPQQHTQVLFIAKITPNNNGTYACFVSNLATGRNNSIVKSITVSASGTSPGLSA

T3: Human CEACAM5 I112V (human, UniProt P06731 35-685, limits assumed)
T3 sequence: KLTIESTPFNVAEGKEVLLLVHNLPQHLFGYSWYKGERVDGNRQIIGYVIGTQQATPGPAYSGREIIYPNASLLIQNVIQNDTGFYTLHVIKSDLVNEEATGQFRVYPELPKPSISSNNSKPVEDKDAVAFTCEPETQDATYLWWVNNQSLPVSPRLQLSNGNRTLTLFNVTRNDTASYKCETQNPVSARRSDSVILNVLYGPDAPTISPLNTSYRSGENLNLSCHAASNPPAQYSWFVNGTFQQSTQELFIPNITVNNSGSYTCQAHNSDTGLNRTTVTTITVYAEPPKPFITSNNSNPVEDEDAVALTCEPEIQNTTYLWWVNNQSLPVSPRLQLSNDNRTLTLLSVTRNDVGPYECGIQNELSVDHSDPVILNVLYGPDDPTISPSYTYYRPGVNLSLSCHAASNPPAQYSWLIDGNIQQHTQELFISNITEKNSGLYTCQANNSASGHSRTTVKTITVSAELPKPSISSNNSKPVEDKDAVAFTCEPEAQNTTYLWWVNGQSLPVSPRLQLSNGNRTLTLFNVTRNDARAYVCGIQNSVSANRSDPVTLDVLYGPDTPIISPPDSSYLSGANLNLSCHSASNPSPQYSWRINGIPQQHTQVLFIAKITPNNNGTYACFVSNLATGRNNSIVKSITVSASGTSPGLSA

T4: Human CEACAM5 I113T (human, UniProt P06731 35-685, limits assumed)
T4 sequence: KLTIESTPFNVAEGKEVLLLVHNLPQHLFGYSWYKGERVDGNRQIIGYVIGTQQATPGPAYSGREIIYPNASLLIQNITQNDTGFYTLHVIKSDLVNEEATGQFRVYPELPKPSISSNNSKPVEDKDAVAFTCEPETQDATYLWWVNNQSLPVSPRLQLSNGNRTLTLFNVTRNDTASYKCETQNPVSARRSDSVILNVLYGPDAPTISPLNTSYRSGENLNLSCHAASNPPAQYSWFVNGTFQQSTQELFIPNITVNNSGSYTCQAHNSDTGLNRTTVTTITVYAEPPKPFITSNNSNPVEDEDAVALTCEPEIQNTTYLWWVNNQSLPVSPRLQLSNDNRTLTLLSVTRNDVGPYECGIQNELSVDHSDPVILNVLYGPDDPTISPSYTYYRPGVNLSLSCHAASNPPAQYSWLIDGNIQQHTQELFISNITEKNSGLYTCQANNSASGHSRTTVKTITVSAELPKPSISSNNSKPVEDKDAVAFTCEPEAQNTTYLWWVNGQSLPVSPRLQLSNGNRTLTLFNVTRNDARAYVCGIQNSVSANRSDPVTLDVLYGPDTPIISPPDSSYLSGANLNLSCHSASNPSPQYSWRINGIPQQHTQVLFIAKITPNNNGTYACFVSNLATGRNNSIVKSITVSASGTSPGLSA


Legend:
[1] = molecular target: T1, Human CEACAM5 I80V V83A I112V I113T; assay: SPR, 37C, pH 7.4
[2] = molecular target: T2, Human CEACAM5 (E398); assay: SPR, 37C, pH 7.4
[3] = molecular target: T3, Human CEACAM5 I112V; assay: SPR, 37C, pH 7.4; reference E398
[4] = molecular target: T4, Human CEACAM5 I113T; assay: SPR, 37C, pH 7.4; reference E398
[5] = molecular target: T2, Human CEACAM5 (E398); assay: SPR, 37C, pH 7.4; reference E398

Kd [1] | kon [1] | Kd [2] | kon [2] | KD/KD(Ref) [3] | KD/KD(Ref) [4] | KD/KD(Ref) [5] | Binder
61 nM | 590000 M⁻¹ s⁻¹ | 7.2 nM | 190000 M⁻¹ s⁻¹ | 1.6 fold | 1.2 fold | 1 fold | AB0466 F3' CEACAM5 TriNKET (bispecific antibody, human IgG1, kappa) not shown heavy: EVQLVESGGGLVKPGGSLRLSCAASGFTFSSYSMNWVRQAPGKGLEWVSSISSSSSYIYYADSVKGRFTISRDNAKNSLYLQMNSLRAEDTAVYYCARGAPIGAAAGWFDPWGQGTLVTVSSASTKGPSVFPLAPSSKSTSGGTAALGCLVKDYFPEPVTVSWNSGALTSGVHTFPAVLQSSGLYSLSSVVTVPSSSLGTQTYICNVNHKPSNTKVDKKVEPKSCDKTHTCPPCPAPELLGGPSVFLFPPKPKDTLMISRTPEVTCVVVDVSHEDPEVKFNWYVDGVEVHNAKTKPREEQYNSTYRVVSVLTVLHQDWLNGKEYKCKVSNKALPAPIEKTISKAKGQPREPQVCTLPPSRDELTENQVSLTCLVKGFYPSDIAVEWESNGQPENNYKTTPPVLDSDGSFFLYSWLTVDKSRWQQGNVFSCSVMHEALHNHYTQKSLSLSPG light: DIQMTQSPSSVSASVGDRVTITCRASQGISSWLAWYQQKPGKAPKLLIYAASSLQSGVPSRFSGSGSGTDFTLTISSLQPEDFATYYCQQGVSFPRTFGGGTKVEIKRTVAAPSVFIFPPSDEQLKSGTASVVCLLNNFYPREAKVQWKVDNALQSGNSQESVTEQDSKDSTYSLSSTLTLSKADYEKHKVYACEVTHQGLSSPVTKSFNRGEC
6.4 nM | 260000 M⁻¹ s⁻¹ | 1.7 nM | 270000 M⁻¹ s⁻¹ | 1.2 fold | 1.1 fold | 1 fold | AB0411 F3' CEACAM5 TriNKET (bispecific antibody, human IgG1, kappa) DIQLTQSPATLSVSPGERATLSCRASQSVSSSYLAWYQQKPGQAPRLLIYGASSRATGIPDRFSGSGSGTDFTLTISRLEPEDFAVYYCQQYNNWPLTFGCGTKVEIKGGGGSGGGGSGGGGSGGGGSQVQLVQSGGGLVQPGGSLRLSCAASGFTFTSYAMSWVRQAPGKCLEWVSAISGTGDSTFYADSVKGRFTFSRDNSKNTLYLQMNSLRAEDTAVYYCAKDLGWLQYGLFDYWGQGTLVTVSSGSDKTHTCPPCPAPELLGGPSVFLFPPKPKDTLMISRTPEVTCVVVDVSHEDPEVKFNWYVDGVEVHNAKTKPREEQYNSTYRVVSVLTVLHQDWLNGKEYKCKVSNKALPAPIEKTISKAKGQPREPRVYTLPPCRDELTKNQVSLTCLVKGFYPSDIAVEWESNGQPENNYKTTPPVLVSDGSFTLYSKLTVDKSRWQQGNVFSCSVMHEALHNHYTQKSLSLSPG heavy: EVQLVESGGGLVKPGGSLRLSCAASGFTFSSYSMNWVRQAPGKGLEWVSSISSSSSYIYYADSVKGRFTISRDNAKNSLYLQMNSLRAEDTAVYYCARGAPIGAAAGWFDPWGQGTLVTVSSASTKGPSVFPLAPSSKSTSGGTAALGCLVKDYFPEPVTVSWNSGALTSGVHTFPAVLQSSGLYSLSSVVTVPSSSLGTQTYICNVNHKPSNTKVDKKVEPKSCDKTHTCPPCPAPELLGGPSVFLFPPKPKDTLMISRTPEVTCVVVDVSHEDPEVKFNWYVDGVEVHNAKTKPREEQYNSTYRVVSVLTVLHQDWLNGKEYKCKVSNKALPAPIEKTISKAKGQPREPQVCTLPPSRDELTENQVSLTCLVKGFYPSDIAVEWESNGQPENNYKTTPPVLDSDGSFFLYSWLTVDKSRWQQGNVFSCSVMHEALHNHYTQKSLSLSPG light: DIQMTQSPSSVSASVGDRVTITCRASQGISSWLAWYQQKPGKAPKLLIYAASSLQSGVPSRFSGSGSGTDFTLTISSLQPEDFATYYCQQGVSFPRTFGGGTKVEIKRTVAAPSVFIFPPSDEQLKSGTASVVCLLNNFYPREAKVQWKVDNALQSGNSQESVTEQDSKDSTYSLSSTLTLSKADYEKHKVYACEVTHQGLSSPVTKSFNRGEC
22 nM | 64000 M⁻¹ s⁻¹ | 17 nM | 100000 M⁻¹ s⁻¹ | 2.3 fold | 1.7 fold | 1 fold | AB0621 F3' CEACAM5 TriNKET (bispecific antibody, human IgG1, kappa) DIVMTQSPDSLAVSLGERATINCKSSHSLLYGNFQNNYLAWYQQKPGQPPKLLIYWASTRESGVPDRFSGSGSGTDFTLTISSLQAEDVAVYYCQQYYSYPYTFGCGTKLEIKGGGGSGGGGSGGGGSGGGGSQVQLVQSGAEVKKPGASVKVSCKASGYTFTAYTIHWVRQAPGQCLEWMGYINPSSGYTEYNQKFKDRTTLTADTSISTAYMELSRLRSDDTAVYYCTREGGLLWFDYWGQGTLVTVSSGSDKTHTCPPCPAPELLGGPSVFLFPPKPKDTLMISRTPEVTCVVVDVSHEDPEVKFNWYVDGVEVHNAKTKPREEQYNSTYRVVSVLTVLHQDWLNGKEYKCKVSNKALPAPIEKTISKAKGQPREPRVYTLPPCRDELTKNQVSLTCLVKGFYPSDIAVEWESNGQPENNYKTTPPVLVSDGSFTLYSKLTVDKSRWQQGNVFSCSVMHEALHNHYTQKSLSLSPG heavy: EVQLVESGGGLVKPGGSLRLSCAASGFTFSSYSMNWVRQAPGKGLEWVSSISSSSSYIYYADSVKGRFTISRDNAKNSLYLQMNSLRAEDTAVYYCARGAPIGAAAGWFDPWGQGTLVTVSSASTKGPSVFPLAPSSKSTSGGTAALGCLVKDYFPEPVTVSWNSGALTSGVHTFPAVLQSSGLYSLSSVVTVPSSSLGTQTYICNVNHKPSNTKVDKKVEPKSCDKTHTCPPCPAPELLGGPSVFLFPPKPKDTLMISRTPEVTCVVVDVSHEDPEVKFNWYVDGVEVHNAKTKPREEQYNSTYRVVSVLTVLHQDWLNGKEYKCKVSNKALPAPIEKTISKAKGQPREPQVCTLPPSRDELTENQVSLTCLVKGFYPSDIAVEWESNGQPENNYKTTPPVLDSDGSFFLYSWLTVDKSRWQQGNVFSCSVMHEALHNHYTQKSLSLSPG light: DIQMTQSPSSVSASVGDRVTITCRASQGISSWLAWYQQKPGKAPKLLIYAASSLQSGVPSRFSGSGSGTDFTLTISSLQPEDFATYYCQQGVSFPRTFGGGTKVEIKRTVAAPSVFIFPPSDEQLKSGTASVVCLLNNFYPREAKVQWKVDNALQSGNSQESVTEQDSKDSTYSLSSTLTLSKADYEKHKVYACEVTHQGLSSPVTKSFNRGEC
